Primed or numbered codes have the meaning given here. Where no end group is shown, it is not given here. [ ]: non-standard residue; d: D form. The star is where a group is joined. Biotin = O=C1N[C@H]2[C@H](CS[C@H]2CCCCC(=O)*)N1; Lys(Me3) = C[N+](C)(C)CCCC[C@H](N)C(=O)O; PEG4′ = not defined here
Experiments:
Assay in all cases: cell microarray on HEK293 cells
PLPP3 = biological target: T1, PLPP3 (human, UniProt O14495 1-311)
T1 construct: whole, on cells
T1 sequence (looked up): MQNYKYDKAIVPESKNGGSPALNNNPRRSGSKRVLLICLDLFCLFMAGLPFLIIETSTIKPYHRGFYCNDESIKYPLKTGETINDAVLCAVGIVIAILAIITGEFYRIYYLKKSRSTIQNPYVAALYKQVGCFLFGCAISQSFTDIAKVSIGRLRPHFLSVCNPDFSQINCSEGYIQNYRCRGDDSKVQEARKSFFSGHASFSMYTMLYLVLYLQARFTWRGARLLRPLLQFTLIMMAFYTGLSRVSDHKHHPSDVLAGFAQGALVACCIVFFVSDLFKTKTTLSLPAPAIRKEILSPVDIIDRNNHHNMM
Experimental: (§1) Initially, two pools of compounds were tested. […] To perform this assay, HEK293 cells were plated on a dish and localized spots of cells were transiently over-expressed with a single cDNA encoding for GFP and one of the 6,416 targets. Included in this library were multiple clones for the Nectin family members, including plasma membrane, non-tethered secreted, and tethered secreted forms of Nectin-1, 2, 3, and 4. Secreted protein targets were tethered to the plasma membrane to aid in detection. The molecule pools were incubated on the fixed, over-expressing cell microarrays (n=2 per protein), and binding was visualized using Alexa Fluor 647 streptavidin fluorescence.

MFSD2B = biological target: T2, MFSD2B (human, UniProt A6NFX1 1-504)
T2 construct: whole, on cells
T2 sequence (looked up): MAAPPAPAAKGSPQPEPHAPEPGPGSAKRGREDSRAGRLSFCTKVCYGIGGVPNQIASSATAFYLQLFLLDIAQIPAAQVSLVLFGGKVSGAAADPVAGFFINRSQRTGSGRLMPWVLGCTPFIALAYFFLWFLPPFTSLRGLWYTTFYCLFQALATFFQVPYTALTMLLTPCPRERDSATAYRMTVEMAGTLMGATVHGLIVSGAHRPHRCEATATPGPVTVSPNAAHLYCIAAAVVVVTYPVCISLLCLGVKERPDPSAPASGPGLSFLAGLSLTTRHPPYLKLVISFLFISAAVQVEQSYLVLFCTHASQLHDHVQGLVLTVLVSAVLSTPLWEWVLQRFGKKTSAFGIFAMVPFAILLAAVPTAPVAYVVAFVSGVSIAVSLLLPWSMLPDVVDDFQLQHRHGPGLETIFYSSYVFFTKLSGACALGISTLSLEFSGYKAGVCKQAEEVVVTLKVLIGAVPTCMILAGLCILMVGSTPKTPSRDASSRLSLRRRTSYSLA
Experimental: as §1

TRPV5 = biological target: T3, TRPV5 (human, UniProt Q9NQA5 1-729)
T3 construct: whole, on cells
Experimental: as §1

IGFBP4 = biological target: T4, IGFBP4 (human, UniProt P22692 22-258)
T4 construct: whole, on cells; Secreted targets were tethered to the plasma membrane
T4 sequence (looked up): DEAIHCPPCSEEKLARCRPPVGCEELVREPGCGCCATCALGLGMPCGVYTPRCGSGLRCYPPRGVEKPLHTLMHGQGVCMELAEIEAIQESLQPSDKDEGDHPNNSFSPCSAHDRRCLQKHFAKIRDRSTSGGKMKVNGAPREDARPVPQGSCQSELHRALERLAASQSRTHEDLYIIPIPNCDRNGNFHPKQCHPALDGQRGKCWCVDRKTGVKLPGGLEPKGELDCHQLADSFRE
Experimental: as §1

SPNS2 = biological target: T5, SPNS2 (human, UniProt Q8IVW8 1-549)
T5 construct: whole, on cells
T5 sequence (looked up): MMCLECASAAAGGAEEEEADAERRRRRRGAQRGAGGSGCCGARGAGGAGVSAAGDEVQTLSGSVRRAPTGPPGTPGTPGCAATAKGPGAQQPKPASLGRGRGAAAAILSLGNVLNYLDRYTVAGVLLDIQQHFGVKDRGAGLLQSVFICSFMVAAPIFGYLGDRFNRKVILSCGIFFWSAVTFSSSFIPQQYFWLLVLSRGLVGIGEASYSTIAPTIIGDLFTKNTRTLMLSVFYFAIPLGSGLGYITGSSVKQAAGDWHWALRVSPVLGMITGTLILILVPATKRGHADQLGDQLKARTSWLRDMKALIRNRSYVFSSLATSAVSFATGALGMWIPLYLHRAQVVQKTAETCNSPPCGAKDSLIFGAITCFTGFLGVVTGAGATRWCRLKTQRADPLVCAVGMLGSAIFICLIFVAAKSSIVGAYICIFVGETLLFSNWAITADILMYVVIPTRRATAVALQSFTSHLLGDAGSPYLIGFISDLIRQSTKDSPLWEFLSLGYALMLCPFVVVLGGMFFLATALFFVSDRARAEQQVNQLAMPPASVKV
Experimental: as §1

IGFBP5 = biological target: T6, IGFBP5 (human, UniProt P24593 21-272)
T6 construct: whole, on cells; Secreted targets were tethered to the plasma membrane
Experimental: as §1

GLP2R = biological target: T7, GLP2R (human, UniProt O95838 1-553)
T7 construct: whole, on cells
T7 sequence (looked up): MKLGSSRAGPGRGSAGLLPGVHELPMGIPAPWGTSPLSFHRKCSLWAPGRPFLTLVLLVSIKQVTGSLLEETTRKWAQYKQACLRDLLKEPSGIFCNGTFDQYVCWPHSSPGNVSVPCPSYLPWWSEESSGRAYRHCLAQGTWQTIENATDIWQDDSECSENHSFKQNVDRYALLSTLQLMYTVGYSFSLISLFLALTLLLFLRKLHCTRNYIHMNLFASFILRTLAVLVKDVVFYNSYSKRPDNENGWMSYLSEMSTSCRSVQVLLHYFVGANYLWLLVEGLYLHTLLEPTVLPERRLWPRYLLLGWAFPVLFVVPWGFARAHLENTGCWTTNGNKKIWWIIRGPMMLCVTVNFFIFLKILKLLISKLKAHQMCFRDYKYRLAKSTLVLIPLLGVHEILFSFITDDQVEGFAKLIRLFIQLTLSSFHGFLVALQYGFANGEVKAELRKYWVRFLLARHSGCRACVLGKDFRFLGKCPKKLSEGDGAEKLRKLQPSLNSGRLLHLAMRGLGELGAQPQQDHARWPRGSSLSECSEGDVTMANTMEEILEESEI
Experimental: as §1

Measured: binding result

T6 sequence (P24593 21-272): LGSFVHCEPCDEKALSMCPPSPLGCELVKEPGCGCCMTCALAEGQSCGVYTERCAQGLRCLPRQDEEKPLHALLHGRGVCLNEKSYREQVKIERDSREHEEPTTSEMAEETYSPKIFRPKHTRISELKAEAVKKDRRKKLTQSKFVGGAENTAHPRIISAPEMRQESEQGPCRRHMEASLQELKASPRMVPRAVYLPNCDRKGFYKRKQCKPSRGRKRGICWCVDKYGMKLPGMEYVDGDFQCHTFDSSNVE
T3 sequence (Q9NQA5 whole entry): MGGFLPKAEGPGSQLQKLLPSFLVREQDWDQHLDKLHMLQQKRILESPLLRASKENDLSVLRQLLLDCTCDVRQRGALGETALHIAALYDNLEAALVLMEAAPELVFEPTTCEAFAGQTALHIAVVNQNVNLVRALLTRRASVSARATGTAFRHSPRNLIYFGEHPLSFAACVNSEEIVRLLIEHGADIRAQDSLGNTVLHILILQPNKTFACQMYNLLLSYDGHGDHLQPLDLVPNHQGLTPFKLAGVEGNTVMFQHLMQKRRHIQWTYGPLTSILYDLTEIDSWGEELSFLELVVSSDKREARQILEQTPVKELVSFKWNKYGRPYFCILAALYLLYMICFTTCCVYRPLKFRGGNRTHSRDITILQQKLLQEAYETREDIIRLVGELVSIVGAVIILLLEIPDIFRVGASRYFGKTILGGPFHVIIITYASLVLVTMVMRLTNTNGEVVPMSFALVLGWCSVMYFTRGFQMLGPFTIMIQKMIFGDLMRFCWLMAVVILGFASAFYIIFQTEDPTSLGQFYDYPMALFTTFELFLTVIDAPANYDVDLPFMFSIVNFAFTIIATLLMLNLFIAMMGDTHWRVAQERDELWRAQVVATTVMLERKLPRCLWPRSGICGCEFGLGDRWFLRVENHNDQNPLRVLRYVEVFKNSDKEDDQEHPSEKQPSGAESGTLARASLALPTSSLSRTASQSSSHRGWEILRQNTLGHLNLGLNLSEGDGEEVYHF

{Biotin-PEG4′}-CEYDEEFFTALARLRGGDICQYIQA[Lys(Me3)]FQYLPALCIEEILDNLGCS (designed binder, cysteine pairing not given here) [C253]
no binding (tested: 2 µg/mL): all assays above

{Biotin-PEG4′}-CDYDEQFFTALKRLRGADICEYIQASFQYLPGECIEEILDNLGCS (designed binder, cysteine pairing not given here) [C208]
no binding (tested: 2 µg/mL): all assays above

{Biotin-PEG4′}-CDYDEQFFTALKRLRGGDICEYIQASFQYLPGLCIEEILDNLGCS (designed binder, cysteine pairing not given here) [C190]
no binding (tested: 2 µg/mL): all assays above

{Biotin-PEG4′}-CEYDEQFFTALKRLRGDDICDYIQASFQYLPGLCIEEILDNLGCS (designed binder, cysteine pairing not given here) [C197]
no binding (tested: 2 µg/mL): all assays above

{Biotin-PEG4′}-CDYDEQFFTALARLRGADICEYIQASFQYLPGECIEEILDNLGCS (designed binder, cysteine pairing not given here) [C247]
no binding (tested: 2 µg/mL): all assays above
